Assay [1] deals with CT26 colorectal tumor cells. Conditions: CTX 100 mg/kg alone, day 10; all mice in the group. The method, then: Mouse colorectal tumor cell line, CT26, was obtained from ATCC. A master cell bank at Passage 4 was generated following ATCC guidelines.
One vial of tumor cells was thawed from the cryopreserved stocks and grown for two passages prior to inoculation.
CT26 cells were split at 1:5 dilution with 30 mL complete medium (RPMI+10% FBS, 2 mM L-Glu, and 1×P/S) for two days culture or at 1:10 dilution with 30 ml complete medium for 3 days culture.
CT26 cells were harvested by aspirating medium, rinsing the flask with 5 mL PBS, adding 5 mL trypsin, incubating at 37° C. for 2 min, and then neutralizing with 10 mL complete medium. After centrifuge at 600×g (˜1000 rpm) for 5 min, media was aspirated and the cell pellet was resuspended by pipetting with 10 ml plain RPMI. This wash step was repeated for three times.
Cell number and viability of the inoculated cells were analyzed by trypan blue dye staining with proper dilution (e.g. 1:5 dilution, 10 μL cells+40 μL trypan blue) and confirmed by NOVA cell count during the last wash step.
On Day 9, all the tumor-bearing mice were first grouped into a rat cage and randomly divided the mice to experimental groups. CTX solution was reconstituted by 1×PBS to 4 mg/mL. Mice were intraperitoneally (IP) injected with 0.5 mL of CTX solution resulting in 2 mg for a 20 gram mouse, i.e. 100 mg/kg.
The same dose was given 2 time a week for 4 weeks, total 8 doses.

For assay [2], the target named is T1, recombinant human PD-1/Fc (Homo sapiens, UniProt Q15116).
T1 construct: Fc; purchased R&D Systems
T1 sequence (Q15116 with tags, fused parts or gaps limits assumed): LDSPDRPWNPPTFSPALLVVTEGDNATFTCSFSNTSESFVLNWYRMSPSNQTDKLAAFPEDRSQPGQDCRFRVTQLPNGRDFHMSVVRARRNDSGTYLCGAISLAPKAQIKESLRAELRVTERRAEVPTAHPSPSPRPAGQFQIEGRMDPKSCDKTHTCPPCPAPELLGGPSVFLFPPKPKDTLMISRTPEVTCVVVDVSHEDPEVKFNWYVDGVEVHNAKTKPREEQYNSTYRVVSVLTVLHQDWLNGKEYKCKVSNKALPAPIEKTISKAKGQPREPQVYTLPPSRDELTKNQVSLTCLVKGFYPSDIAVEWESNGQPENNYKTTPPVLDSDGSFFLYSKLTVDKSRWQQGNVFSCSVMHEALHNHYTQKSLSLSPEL
In words: PD-1 binding ELISA, human B7-DC-Ig. Conditions: plates coated with recombinant human PD-1/Fc, four different lots, FIG. 1A. The method, then:
96-well ELISA plates were coated with 100 μL 0.75 ug/mL recombinant human PD-1/Fc (R&D Systems) diluted in BupH Carbonate/Bicarbonate pH 9.4 buffer (Pierce) for 2 hours and then blocked with BSA solution (Jackson ImmunoResearch) for 90-120 minutes. […] Absorbance at 450 nm was read using a plate reader (Molecular Devices) and data were analyzed in SoftMax using a 4-parameter logistic fit.
Background: ELISA stands for enzyme-linked immunosorbent assay.

The target of assay [3] is T2, recombinant mouse PD-1/Fc (Mus musculus, UniProt Q02242).
T2 construct: Fc; purchased R&D Systems
T2 sequence (Q02242 with tags, fused parts or gaps limits assumed): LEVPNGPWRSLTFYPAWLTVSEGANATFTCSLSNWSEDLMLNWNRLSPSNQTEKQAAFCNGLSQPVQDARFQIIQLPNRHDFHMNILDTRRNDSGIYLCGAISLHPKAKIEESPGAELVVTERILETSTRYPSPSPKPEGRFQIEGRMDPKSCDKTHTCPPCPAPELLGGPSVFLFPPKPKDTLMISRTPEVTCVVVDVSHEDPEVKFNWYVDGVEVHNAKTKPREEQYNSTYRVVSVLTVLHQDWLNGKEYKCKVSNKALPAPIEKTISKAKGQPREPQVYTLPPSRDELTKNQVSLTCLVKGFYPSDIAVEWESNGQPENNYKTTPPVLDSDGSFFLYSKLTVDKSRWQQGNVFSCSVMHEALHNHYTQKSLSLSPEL
In words: PD-1 binding ELISA, murine B7-DC-Ig. The following applies: plates coated with recombinant mouse PD-1/Fc, compared with wild type, FIG. 1B. The method, then:
96-well ELISA plates were coated with 100 μL 0.75 ug/mL recombinant mouse PD-1/Fc (R&D Systems) diluted in BupH Carbonate/Bicarbonate pH 9.4 buffer (Pierce) for 2 hours and then blocked with BSA solution (Candor-Bioscience) for 90 minutes. […] Absorbance at 450 nm was read using a plate reader (Molecular Devices) and data were analyzed in SoftMax using a 4-parameter logistic fit.

Assay [4] has as its system more aggressive, less immunogenic tumor types. Description: Activity against more aggressive, less immunogenic tumor types. It is filed as in vivo. Conditions: single agent.
In assay [5] the test system is P815 mastocytoma cells. In words: P815 mastocytoma tumor model. The format is in vivo, DBA/2 mice. As for the experimental part: P815 mastocytoma cells were derived from DBA/2 mice after methylcholanthrene (MCA) treatment. Injection of 5×10^4 cells SC can result in mortality approximately 35 days post tumor inoculation.
DBA/2 mice (6-10 weeks of age, females) were first challenged with 5×10^4 live P815 cells injected SC in the flank. Six days later, the mice were treated with murine B7-DC-Ig via IP injection. […] Control groups were treated with vehicle only or with murine IgG. Tumor size was measured with digital calipers every 2-3 days. Mice were euthanized and defined as dead when their tumor size reached or exceeded 1000 mm^3, according to protocols approved by the Institutional Animal Care and Use Committee (IACUC) of the American Red Cross (ARC; the site of Amplimmune's vivarium). Surviving tumor free mice were re-challenged with P815 tumor cells on Day 52.
The tumor-free mice were then re-challenged with 5×10^4 P815 cells administered to the flank opposite the primary inoculation site on Day 52.

The mark [6] stands for this setting: 100 ug per injection IP, 2 times per week, up to 6 doses.
Setting [7] is: 5 mice per group, 5 mg/kg IP biw 3 weeks starting Day 6.

Take `O=P1(N(CCCl)CCCl)NCCCO1` (stereo not shown) [CTX, cyclophosphamide]: the “outcome of mice with established tumors” value in assay [1] is “died as a result of tumor growth or were euthanized”.

Turning to “B7-DC-Ig: human PD-L2 (B7-DC) extracellular domain fused to hinge, CH2 and CH3 of human immunoglobulin Cγ1 chain (SEQ ID NO:56/57)”, in assay [2], the “PD-1 binding activity (OD450)” value is on record as “binding”.

For the molecule “D111S: murine B7-DC-Ig with the D111S substitution”, in assay [3], the “PD-1 binding activity (OD450)” value is recorded as “reduced binding to PD-1”.

With “K113S: murine B7-DC-Ig with the K113S substitution”, in assay [3], the “PD-1 binding activity (OD450)” value is “reduced binding to PD-1”.

B1: Murine B7-DC-Ig: murine PD-L2 (B7-DC) extracellular domain fused to hinge, CH2 and CH3 of murine immunoglobulin Cγ2a chain (SEQ ID NO:53/54) (protein, listed as Mus musculus)
chain: LFTVTAPKEVYTVDVGSSVSLECDFDRRECTELEGIRASLQKVENDTSLQSERATLLEEQLPLGKALFHIPSVQVRDSGQYRCLVICGAAWDYKYLTVKVKASYMRIDTRILEVPGTGEVQLTCQARGYPLAEVSWQNVSVPANTSHIRTPEGLYQVTSVLRLKPQPSRNFSCMFWNAHMKELTSAIIDPLSRMEPKVPRTWEPRGPTIKPCPPCKCPAPNLLGGPSVFIFPPKIKDVLMISLSPIVTCVVVDVSEDDPDVQISWFVNNVEVHTAQTQTHREDYNSTLRVVSALPIQHQDWMSGKEFKCKVNNKDLPAPIERTISKPKGSVRAPQVYVLPPPEEEMTKKQVTLTCMVTDFMPEDIYVEWTNNGKTELNYKNTEPVLDSDGSYFMYSKLRVEKKNWVERNSYSCSVVHEGLHNHHTTKSFSRTPGK
On to B1, for which, in assay [4], the “anti-tumor activity alone against more aggressive, less immunogenic tumor types” value is “minimal activity”. Besides, in assay [5] (setting [6]), the “mice in which tumor was eradicated” value was “two”, the “mice responded to treatment” value is reported as “Four of 5” and the “mice with delayed tumor growth during treatment” value is on record as “two”. In addition, in assay [5] (setting [7]), the “# Tumor <500 mm^3” value came to 2, the “# Tumor free” value is recorded as 2 and the “# Tumor ≧500 mm^3” value was determined as 1. Moreover, the “outcome of re-challenge of tumor-free mice” value in assay [5] (re-challenged with 5×10^4 P815 cells on Day 52, opposite flank, through 74 days after primary inoculation) is listed as “remained tumor free”. For the same molecule, in assay [5] (single agent), the “anti-tumor activity alone in the P815 model” value was “effective”.
